Experimental findings from US20230364254A1, “METHODS FOR TREATING CANCERS WITH ANTIBODY DRUG CONJUGATES (ADC) THAT BIND TO 191P4D12 PROTEINS” (priority 2020, published 2023) are described below.

In data set [1] the test system is patients treated with enfortumab vedotin. The experiment in a line: Phase 1 study ASG-22CE-13-2 of enfortumab vedotin: dermatologic and corneal adverse events. It is filed as in vivo, human. An excerpt:
In the phase 1 study (Study ASG-22CE-13-2), rash and similar dermatologic AEs were common among patients treated with enfortumab vedotin, and were seen more frequently at the highest dose. Although the exact etiology of dermatologic toxicities associated with enfortumab vedotin is unclear at this time, due to the expression of Nectin-4 in the skin, rash may be an on-target toxicity. The most common dermatological AEs reported in ASG-22CE-13-2 were drug eruption, rash, skin exfoliation, skin pigmentation disorder, and rash maculo-papular. Most occurred during Cycle 1, and some were associated with pruritus. Almost all were mild, with the exception of two events of rash reported as Grade 3 in the 1 mg/kg dose group. […] Mild rash related to enfortumab vedotin should be treated using local supportive care as needed. Topical corticosteroids have been used along with antihistamines for pruritus as needed.
Slit lamp examinations will be conducted on at least the first 60 enrolled patients (from Cohorts 1 and/or 2) on Cycle 2 Day 22 (±1 week) and Cycle 6 Day 22 (±1 week). If corneal AEs are observed in <15% of the first 60 enrolled patients and if the events are generally low grade or asymptomatic, the IDMC may make a recommendation to cease Cycle 2 Day 22 and/or Cycle 6 Day 22 slit lamp exams for the remaining patients if warranted based on review of the cumulative ocular safety data. Based on the results from the Phase 1 study (Study ASG-22CE-13-2), as of the data cut-off date of 14 Nov. 2016, there were 3 patients who reported experiencing corneal adverse events out of 33 patients on […] of enfortumab vedotin. Assuming an event rate of 9% (3/33), with a sample size of 60, the probability of observing >3 events (5%) is 80.0% and the probability of observing <9 events (15%) is 91.2%. If the event rate is higher, the probability of observing <9 events is decreased. For example, if the event rate is 20%, the probability of observing <9 events is decreased to 12.7%. Based on the analysis described above and the review of cumulative ocular safety data, the IDMC recommended that the Cycle 2 Day 22 and Cycle 6 Day 22 slit lamp exams be discontinued in July 2018 and August 2019, respectively.

The target in a further data set is T1, 191P4D12 (Homo sapiens, UniProt Q96NY8).
T1 sequence (Q96NY8 32-510): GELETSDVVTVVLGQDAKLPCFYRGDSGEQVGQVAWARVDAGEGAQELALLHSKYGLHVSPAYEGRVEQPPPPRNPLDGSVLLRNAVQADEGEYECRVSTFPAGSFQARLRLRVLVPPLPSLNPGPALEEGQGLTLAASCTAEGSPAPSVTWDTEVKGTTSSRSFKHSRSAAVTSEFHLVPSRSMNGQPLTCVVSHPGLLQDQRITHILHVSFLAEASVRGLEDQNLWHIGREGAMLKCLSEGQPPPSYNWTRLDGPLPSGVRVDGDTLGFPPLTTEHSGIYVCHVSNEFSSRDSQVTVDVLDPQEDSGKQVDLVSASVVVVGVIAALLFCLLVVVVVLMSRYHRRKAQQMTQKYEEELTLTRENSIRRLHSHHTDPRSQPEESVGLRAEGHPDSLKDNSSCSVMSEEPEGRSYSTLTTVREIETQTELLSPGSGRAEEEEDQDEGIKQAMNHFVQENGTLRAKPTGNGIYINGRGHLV
Put plainly: Analytical and biological characterization studies: comparability of enfortumab vedotin and AGS-22M6E. An excerpt: As described above and in U.S. Pat. No. 8,637,642, AGS-22M6E is an ADC derived from a murine hybridoma cell line. Enfortumab vedotin is a Chinese hamster ovary (CHO) cell line-derived equivalent of AGS-22M6E ADC and is an exemplary product used for human treatment. Enfortumab vedotin has the same amino acid sequence, linker and cytotoxic drug as AGS-22M6E. The comparability between enfortumab vedotin and AGS-22M6E was confirmed through extensive analytical and biological characterization studies, such as binding affinity to 191P4D12, in vitro cytotoxicity, and in vivo antitumor activity.

“enfortumab vedotin: Nectin-4 directed ADC: fully human anti-nectin-4 IgG1 kappa antibody (AGS-22C3) conjugated to MMAE via protease-cleavable maleimidocaproyl valine-citrulline linker”: the “dermatological AEs that required discontinuation of study drug” value in data set [1] is “None”. In addition, the “events of rash reported as Grade 3” value in data set [1] (1 mg/kg dose group) was “two”. In addition, in data set [1] (1.25 mg/kg), the “corneal adverse event rate (3/33)” value came out at 9% and the “events of Grade 1 papular rash that required a dose reduction” value is on record as “one”. Also, the “patients who reported experiencing corneal adverse events” value in data set [1] (out of 33 patients on 1.25 mg/kg, data cut-off 14 Nov. 2016) turned out to be 3. The “comparability between enfortumab vedotin and AGS-22M6E (binding affinity to 191P4D12, in vitro cytotoxicity, in vivo antitumor activity)” value with 191P4D12 was “confirmed”.
